Measurements taken from article PMC3201865 (Nucleic Acids Research, 2011).

Biological target: recombinant full-length USP7 (UniProt Q93009 1-1102)
Assay: co-IP

Sequence of recombinant full-length USP7 (Q93009 whole entry): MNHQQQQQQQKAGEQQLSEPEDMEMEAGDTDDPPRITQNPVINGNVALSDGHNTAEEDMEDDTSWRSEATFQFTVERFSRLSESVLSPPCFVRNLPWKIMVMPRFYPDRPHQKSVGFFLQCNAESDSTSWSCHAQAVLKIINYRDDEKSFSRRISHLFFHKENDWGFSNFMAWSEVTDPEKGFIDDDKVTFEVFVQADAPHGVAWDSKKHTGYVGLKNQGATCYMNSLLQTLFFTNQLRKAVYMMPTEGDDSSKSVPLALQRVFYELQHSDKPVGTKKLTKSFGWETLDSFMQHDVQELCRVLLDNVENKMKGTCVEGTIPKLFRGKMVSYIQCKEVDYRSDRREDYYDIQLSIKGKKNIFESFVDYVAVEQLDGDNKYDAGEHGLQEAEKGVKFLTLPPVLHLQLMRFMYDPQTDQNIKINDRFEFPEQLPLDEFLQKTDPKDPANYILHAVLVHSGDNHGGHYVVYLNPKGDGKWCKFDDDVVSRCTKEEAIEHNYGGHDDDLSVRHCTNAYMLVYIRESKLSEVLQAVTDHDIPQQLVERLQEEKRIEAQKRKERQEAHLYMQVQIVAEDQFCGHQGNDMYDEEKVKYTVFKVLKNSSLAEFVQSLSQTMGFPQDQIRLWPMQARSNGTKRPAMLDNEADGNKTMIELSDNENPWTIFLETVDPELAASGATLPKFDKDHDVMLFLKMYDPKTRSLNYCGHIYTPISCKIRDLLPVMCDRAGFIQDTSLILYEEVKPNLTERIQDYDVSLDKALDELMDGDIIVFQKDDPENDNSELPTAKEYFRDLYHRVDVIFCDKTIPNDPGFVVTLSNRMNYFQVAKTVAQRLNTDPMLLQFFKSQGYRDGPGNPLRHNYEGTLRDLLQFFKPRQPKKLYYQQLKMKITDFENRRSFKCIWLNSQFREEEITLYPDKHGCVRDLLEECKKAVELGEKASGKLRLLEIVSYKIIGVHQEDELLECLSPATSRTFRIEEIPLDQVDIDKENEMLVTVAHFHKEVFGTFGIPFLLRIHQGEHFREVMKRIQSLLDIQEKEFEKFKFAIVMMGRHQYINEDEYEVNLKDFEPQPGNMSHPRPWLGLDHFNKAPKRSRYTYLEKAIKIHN

B1: recombinant full-length UHRF1 (natural protein)
chain: MWIQVRTMDGRQTHTVDSLSRLTKVEELRRKIQELFHVEPGLQRLFYRGKQMEDGHTLFDYEVRLNDTIQLLVRQSLVLPHSTKERDSELSDTDSGCCLGQSESDKSSTHGEAAAETDSRPADEDMWDETELGLYKVNEYVDARDTNMGAWFEAQVVRVTRKAPSRDEPCSSTSRPALEEDVIYHVKYDDYPENGVVQMNSRDVRARARTIIKWQDLEVGQVVMLNYNPDNPKERGFWYDAEISRKRETRTARELYANVVLGDDSLNDCRIIFVDEVFKIERPGEGSPMVDNPMRRKSGPSCKHCKDDVNRLCRVCACHLCGGRQDPDKQLMCDECDMAFHIYCLDPPLSSVPSEDEWYCPECRNDASEVVLAGERLRESKKKAKMASATSSSQRDWGKGMACVGRTKECTIVPSNHYGPIPGIPVGTMWRFRVQVSESGVHRPHVAGIHGRSNDGAYSLVLAGGYEDDVDHGNFFTYTGSGGRDLSGNKRTAEQSCDQKLTNTNRALALNCFAPINDQEGAEAKDWRSGKPVRVVRNVKGGKNSKYAPAEGNRYDGIYKVVKYWPEKGKSGFLVWRYLLRRDDDEPGPWTKEGKDRIKKLGLTMQYPEGYLEALANREREKENSKREEEEQQEGGFASPRTGKGKWKRKSAGGGPSRAGSPRRTSKKTKVEPYSLTAQQSSLIREDKSNAKLWNEVLASLKDRPASGSPFQLFLSKVEETFQCICCQELVFRPITTVCQHNVCKDCLDRSFRAQVFSCPACRYDLGRSYAMQVNQPLQTVLNQLFPGYGNGR
B1: binds.
